One assay concerns the target endogenous murine Rb1 (UniProt P13405). Nature of the assay: immunoprecipitation/Western blot (anti-HA IP of E7, Rb1 immunoblot). To be noted: NIH 3T3 cells, transient expression; parent: 1.
Assay [1] deals with retinoblastoma tumor suppressor protein RB1 (endogenous, HCT116) (UniProt P06400). Nature of the assay: immunoprecipitation/Western blot (anti-Flag IP of E7, RB1 immunoblot). As to conditions: parent: 1. In general terms: Immunoblotting shows a protein as a band on a membrane.
Sequence of UniProt P06400 (P06400 whole entry): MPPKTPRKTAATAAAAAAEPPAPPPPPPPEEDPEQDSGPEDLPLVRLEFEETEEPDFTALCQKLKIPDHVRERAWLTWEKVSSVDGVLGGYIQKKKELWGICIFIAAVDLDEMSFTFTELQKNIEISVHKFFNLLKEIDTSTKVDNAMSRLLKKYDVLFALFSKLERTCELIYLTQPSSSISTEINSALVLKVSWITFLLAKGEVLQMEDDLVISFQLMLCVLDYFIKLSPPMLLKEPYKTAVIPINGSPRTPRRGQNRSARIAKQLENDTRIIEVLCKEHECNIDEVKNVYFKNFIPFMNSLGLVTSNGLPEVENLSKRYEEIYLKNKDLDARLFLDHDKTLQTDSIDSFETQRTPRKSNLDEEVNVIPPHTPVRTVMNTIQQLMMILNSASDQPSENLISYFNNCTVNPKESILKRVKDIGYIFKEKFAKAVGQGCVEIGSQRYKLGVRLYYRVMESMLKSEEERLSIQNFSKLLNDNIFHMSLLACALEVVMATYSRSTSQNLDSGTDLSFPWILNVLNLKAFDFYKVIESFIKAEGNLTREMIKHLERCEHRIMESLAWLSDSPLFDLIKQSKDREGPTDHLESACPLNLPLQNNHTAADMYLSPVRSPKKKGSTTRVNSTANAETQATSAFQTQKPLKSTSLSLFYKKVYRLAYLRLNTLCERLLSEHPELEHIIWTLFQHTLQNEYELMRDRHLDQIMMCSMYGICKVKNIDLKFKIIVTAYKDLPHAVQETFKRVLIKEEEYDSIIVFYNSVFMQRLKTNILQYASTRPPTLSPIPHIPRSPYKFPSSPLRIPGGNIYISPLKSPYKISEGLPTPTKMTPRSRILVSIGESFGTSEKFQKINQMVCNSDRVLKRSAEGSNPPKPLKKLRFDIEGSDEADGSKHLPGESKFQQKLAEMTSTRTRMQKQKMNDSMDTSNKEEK
Setting [2] is: HCT116 cells, transient expression.

Sequence of UniProt P13405 (P13405 whole entry): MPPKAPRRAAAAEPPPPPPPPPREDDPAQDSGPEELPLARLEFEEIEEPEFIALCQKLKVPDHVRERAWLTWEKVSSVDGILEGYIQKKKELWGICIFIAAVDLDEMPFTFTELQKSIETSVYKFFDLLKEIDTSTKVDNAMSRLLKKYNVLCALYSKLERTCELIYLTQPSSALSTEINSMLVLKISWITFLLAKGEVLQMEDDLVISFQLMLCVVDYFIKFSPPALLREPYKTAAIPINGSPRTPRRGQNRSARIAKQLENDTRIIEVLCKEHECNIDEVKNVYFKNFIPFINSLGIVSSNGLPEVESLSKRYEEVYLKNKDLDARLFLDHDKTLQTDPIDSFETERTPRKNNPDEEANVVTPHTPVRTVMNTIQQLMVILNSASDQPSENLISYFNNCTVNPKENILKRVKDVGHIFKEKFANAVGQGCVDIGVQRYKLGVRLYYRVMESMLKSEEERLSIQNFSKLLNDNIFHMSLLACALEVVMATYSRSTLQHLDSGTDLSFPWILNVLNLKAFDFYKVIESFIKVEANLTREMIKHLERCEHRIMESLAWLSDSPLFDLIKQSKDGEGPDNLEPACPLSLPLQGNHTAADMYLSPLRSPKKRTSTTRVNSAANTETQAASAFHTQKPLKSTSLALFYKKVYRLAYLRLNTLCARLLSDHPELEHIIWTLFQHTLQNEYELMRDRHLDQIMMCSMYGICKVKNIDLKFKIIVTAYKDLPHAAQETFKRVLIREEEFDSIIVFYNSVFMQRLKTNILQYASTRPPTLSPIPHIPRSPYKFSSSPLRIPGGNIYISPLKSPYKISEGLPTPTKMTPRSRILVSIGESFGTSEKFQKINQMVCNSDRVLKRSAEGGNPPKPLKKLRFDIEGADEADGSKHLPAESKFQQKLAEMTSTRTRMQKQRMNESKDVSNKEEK

For “N-terminally FLAG/HA epitope-tagged MmuPV1 E7 D90A”, the ratio to parent with endogenous murine Rb1 came out at 0.02; in assay [1] (setting [2]) it was 0.01; in assay [1], 0.05. For the substance “N-terminally FLAG/HA epitope-tagged MmuPV1 E7 D90N”, in assay [1], the ratio to parent was determined as 0.27. “N-terminally FLAG/HA epitope-tagged MmuPV1 E7 D90T”: the ratio to parent in assay [1] is 0.07.

Take “N-terminally FLAG/HA epitope-tagged MmuPV1 E7 E84R; S85R”: the ratio to parent in assay [1] (setting [2]) stood at 0.65. On the same count and under the same terms, the same measure for “N-terminally FLAG/HA epitope-tagged MmuPV1 E7 R57D”: 0.64.

Source of the values: publication PMC8406179.
